Source: patent US11077159B2, “Compositions from halophyte plants and methods of use thereof” (KHALIFA UNIVERSITY OF SCIENCE AND TECHNOLOGY, priority 2017, dated 2021)
“And” between values parts separate entries of the source, which are not always exact repeats. Equal values may be shown once.

Tested on: NHEK
Assay: Migration/proliferation of NHEK, wound recovery by kinetic image analysis
Assay type: cell-based, human
Settings: 10 ng/ml, single image
Procedure: Botanical extracts were evaluated for anti-aging, cell renewal and anti-inflammatory properties via systemic application (diluted in the culture medium) using the concentrations that were determined not toxic for skin cells (0.1 mg/ml) followed by two successive 3-fold dilutions. The matrix metalloproteinase-1 (MMP-1) assay using a specific ELISA kit was used to evaluate anti-aging properties. The migration/proliferation of NHEK using kinetic image analysis of the wound recovery was used to evaluate cell renewal properties. The IL-8 release on NHEK stimulated by PMA using a specific ELISA kit was used to evaluate anti-inflammatory properties.

B1: EGF: control (EGF) at 10 ng/ml in the wound recovery assay (protein, UniProt P01133 23-1207, looked up)
Pro-epidermal growth factor: PQHWSCPEGTLAGNGNSTCVGPAPFLIFSHGNSIFRIDTEGTNYEQLVVDAGVSVIMDFHYNEKRIYWVDLERQLLQRVFLNGSRQERVCNIEKNVSGMAINWINEEVIWSNQQEGIITVTDMKGNNSHILLSALKYPANVAVDPVERFIFWSSEVAGSLYRADLDGVGVKALLETSEKITAVSLDVLDKRLFWIQYNREGSNSLICSCDYDGGSVHISKHPTQHNLFAMSLFGDRIFYSTWKMKTIWIANKHTGKDMVRINLHSSFVPLGELKVVHPLAQPKAEDDTWEPEQKLCKLRKGNCSSTVCGQDLQSHLCMCAEGYALSRDRKYCEDVNECAFWNHGCTLGCKNTPGSYYCTCPVGFVLLPDGKRCHQLVSCPRNVSECSHDCVLTSEGPLCFCPEGSVLERDGKTCSGCSSPDNGGCSQLCVPLSPVSWECDCFPGYDLQLDEKSCAASGPQPFLLFANSQDIRHMHFDGTDYGTLLSQQMGMVYALDHDPVENKIYFAHTALKWIERANMDGSQRERLIEEGVDVPEGLAVDWIGRRFYWTDRGKSLIGRSDLNGKRSKIITKENISQPRGIAVHPMAKRLFWTDTGINPRIESSSLQGLGRLVIASSDLIWPSGITIDFLTDKLYWCDAKQSVIEMANLDGSKRRRLTQNDVGHPFAVAVFEDYVWFSDWAMPSVMRVNKRTGKDRVRLQGSMLKPSSLVVVHPLAKPGADPCLYQNGGCEHICKKRLGTAWCSCREGFMKASDGKTCLALDGHQLLAGGEVDLKNQVTPLDILSKTRVSEDNITESQHMLVAEIMVSDQDDCAPVGCSMYARCISEGEDATCQCLKGFAGDGKLCSDIDECEMGVPVCPPASSKCINTEGGYVCRCSEGYQGDGIHCLDIDECQLGEHSCGENASCTNTEGGYTCMCAGRLSEPGLICPDSTPPPHLREDDHHYSVRNSDSECPLSHDGYCLHDGVCMYIEALDKYACNCVVGYIGERCQYRDLKWWELRHAGHGQQQKVIVVAVCVVVLVMLLLLSLWGAHYYRTQKLLSKNPKNPYEESSRDVRSRRPADTEDGMSSCPQPWFVVIKEHQDLKNGGQPVAGEDGQAADGSMQPTSWRQEPQLCGMGTEQGCWIPVSSDKGSCPQVMERSFHMPSYGTQTLEGGVEKPHSLLSANPLWQQRALDPPHQMELTQ
modifications: Pro-epidermal growth factor
notes: control (EGF) at 10 ng/ml in the wound recovery assay
16 hours
  Wound area: 0.86 mm^2 and 0.69 mm^2 and 0.89 mm^2
24 hours
  Wound area: 0.64 mm^2 and 0.44 mm^2 and 0.63 mm^2
